# Experimental data: the RNAGym collection of RNA variant scans (doi:10.1073/pnas.2313332121)
# B1: TPR t1 (parent)
# chain: GACCAAUCUGCCCUCAGAGCUCGAGAACAUCUUCGGAUGCAGAGGAGGCAGGCUUCGGUGGCGCGAUAGCGCCAACGUCCUCAACCUCCAAUGCAUCCCACCACAUGAUGAUGCCUGAAGAGCCUUGGUUUUUUG
# Variants of: B1
# Assay: polymerase ribozyme fitness, log enrichment relative to wild type (log ratio); higher = more active; in vitro selection for triplet polymerase activity
# Procedure, shortened: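 Fitness compares each genotype's enrichment to that of the wild type on a logarithmic scale, averaging replicates with inverse-variance weights. The logarithm is base 2. Enrichment came from Illumina sequencing of input and output libraries after one triplicate round of in vitro selection, which included frozen incubation at −7 °C, of PCR-built, transcribed mutant libraries of each subunit of a heterodimeric triplet polymerase ribozyme. Only genotypes with ≥10 input reads and ≥1 read per output were kept.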
row,Variant,polymerase ribozyme fitness (log ratio)
1,C8A G61A C115U,-0.118
2,C8G C15U G48C G71A C124G,0.113
3,C8G G128U U130C,0.904
4,C8G A50U C53G C99U C104A C115A A121C,-7
5,C8G A95G,0.646
6,C8G C11U G52U U81G U92C A119G U133A,-5.64
7,C8G A27U G47C,-3.02
8,C8G G93A,-0.604
9,C8G C20G G63C U109G,-3.93
10,C8G G44U G61A U78A C82G C115A U130A,0.635
11,C8G C11G U54C U55G C56U,-1.33
12,C8G C15G C70G C114U,-5.64
13,C8G A37U A74C C88G G110A,-3.12
14,C8G G39A C73A C97A,-5.92
15,C8G C34A C72G C82U G110U,-4.9
16,C8G G58A G93U C101U A121C,0.327
17,C8G A46C C97G C101A C114A U130C,-6.93
18,C8A G77U C82A,0.031
19,C8G C40A C72A C98U G127C,-1.39
20,C8G C15G U21C G36A C82U U112A,-1.27
21,C8A U92C,-0.565
22,C8G G42U G58C,-0.604
23,C8G A29U C73A G120U,-0.106
24,C8G G36A,-0.023

row,Variant,polymerase ribozyme fitness (log ratio)
1,C8A U112A,1.61
2,C8A U112G,0.614
3,C8G C31U G71U G120U,-3.77
4,C8A U38A A46C C72U,-1.72
5,C8G A46G A66C A90U,-4.16
6,C8G A46G C97U G120U U132A,1.67
7,C8G A16G A90C U96C U112A,0.488
8,C8G C11G G36U,0.581
9,C8G A16C G61C G71A G120C,-6.1
10,C8G C20A,-1.49
11,C8G C20U,-1.02
12,C8G C11U U59A C62A G63U,-5.8
13,C8G C13G G36A U78A A111C,0.328
14,C8G C12G G17C C82A C102U C104A,-5.44
15,C8G A26U U81A,-3.21
16,C8G G93A A111C,0.513
17,C8A U59A C82A U96A U112A,0.158
18,C8G G61A C94U C99G G117C,-7.13
19,C8G C13A A18U G51U C56A U116C,-5.95
20,C8G A68U G77C G120C,-7.19
21,C8G G36U C49G C62G U129C,-3.6
22,C8G C15U C62U C89G G93A C101U G113C C114U G127C,-4.12
23,C8G C82A,0.946
24,C8A G52U A91U U112A A118C U131C,-1.36

row,Variant,polymerase ribozyme fitness (log ratio)
1,C8G A26G G57U A119G U130G,-0.722
2,C8G C22G C76A G77A,-5.05
3,C8G C12U G42C G93A,-2.42
4,C8A U96C C123A,1.93
5,C8A U9A A50U C80U A84C,-2.54
6,C8G C34U,-3.12
7,C8G C34G,-6.45
8,C8G C53A G117A,0.922
9,C8G A91C G122A,-0.3
10,C8G G69C U78G C101A,-3.19
11,C8G C49A U54C G122U,0.439
12,C8G G60U C70U C79A U96C,-4.38
13,C8G G107U,-5
14,C8G G35C A90G,-2.66
15,C8G C34G C89A U96G A100U,-7.34
16,C8G C94A C104U,0.226
17,C8G C56U,0.485
18,C8A U133A,0.119
19,C8G C12G C114G,-2.57
20,C8G C56A C124G,1.48
21,C8A G113U,-1.81
22,C8A G69U C99A G120A G122A,-1.73
23,C8G A18C A37C C64G A90U U106A C123A U131A,-6.48
24,C8G C15G C72G,-1.27

row,Variant,polymerase ribozyme fitness (log ratio)
1,C8G A16C C62A G71A G120C,-1.27
2,C8A U21C A83G G117A,-1.39
3,C8G G10C C11U C20A U33C C56G G63U C64G C72G C114G G127U,-6.79
4,C8G A16U,0.648
5,C8G C11A C72U C88U C97U G113U G127C,-4.01
6,C8G G48A U96G U129A,-0.823
7,C8G C80U,0.0565
8,C8G A41G G58C A83G G110U A121G,-4.41
9,C8G C12A G39A C85U U112A G113C,-1.36
10,C8G A37U U38C G47A U131A,-1.99
11,C8G G61U,0.967
12,C8A G57C C64U C123U U129A U133G,1.06
13,C8G G19A,-1.89
14,C8G A27U G36A G42U C76A U96A U109A U116G,-6.96
15,C8G A83G U87C C101G,-1.58
16,C8A G60A U78A U92C,-1.3
17,C8G C72G,0.418
18,C8G C72U,0.18
19,C8G C70G A100C C123A,-2.51
20,C8G C22G C53U C70U A84C,-3.45
21,C8G C31G,-6.18
22,C8G G65U,-5.38
23,C8G C28A G61A,-3.79
24,C8A U33A G42U C73U U112A C123A,-5.52

row,Variant,polymerase ribozyme fitness (log ratio)
1,C8G C11U A121C U130A,1.01
2,C8G C72A C89A C94G,-1.88
3,C8G C72U A90C A91U A95G,-1.1
4,C8G A18C C40U C72A C123G,0.381
5,C8G C15A G63C,-0.139
6,C8A U78C U106C C114U,-2.11
7,C8G A50U G61U,0.00345
8,C8G G45A A84G C89U G117A,-2.7
9,C8G G113A,0.074
10,C8G G113C,-1.31
11,C8G A100U C115U,-2.51
12,C8G G77C,0.232
13,C8G G128C,-0.73
14,C8G A29U U132C,-1.95
15,C8G A50U G60U C123A G128U U130A,-0.561
16,C8G G39A C79A C82A C85A C114U,-4.81
17,C8G C12U C15U G25A A27U G42C G61A U78C U112A U125A U131A,-6.3
18,C8A G93U U106A,-0.449
19,C8G G45U,-1.39
20,C8G G19U G48A A50U U54G C72U U92A U112A,-4.04
21,C8G C114A G135U,-0.31
22,C8G G47C C86G C124A,1.6
23,C8G C11G C20U G63C,-1.38
24,C8G G10C G19U A37U C53G,-3.79

row,Variant,polymerase ribozyme fitness (log ratio)
1,C8G G45A G48A G57A G61U U92G U112G,-6.23
2,C8G G61A U109A U132C,-4.05
3,C8G A29U A68G C88U U125G,-3.26
4,C8G G36U C70U,0.358
5,C8G C49U G127A,-1.03
6,C8G G47A,-0.0438
7,C8G C34A U78C C97A G107A,-3.66
8,C8A U129C,-1.05
9,C8G G35U,-3.78
10,C8G A27U G93U,-3.29
11,C8G C12A G63C,0.17
12,C8G A37G G71A C123A U133G,1.08
13,C8G C40A C89A G120A U132A,0.693
14,C8G G42A C53A G63A U81C C82A C86U C99G A118U,-7.86
15,C8G C62A,-0.27
16,C8G C62U,0.179
17,C8A G71U A84C A95G U109A U126A,-5.61
18,C8A U30A A46C U106C C123U,-5.15
19,C8G G60U U81A C123A,1.75
20,C8G G19A A119G,-1.07
21,C8G G63U A75U A83G C85A G122A,-0.256
22,C8G C62U C115U,-0.929
23,C8G G19C C20U U21G U54C U87G,-4.85
24,C8G C115U,-0.75

row,Variant,polymerase ribozyme fitness (log ratio)
1,C8G C115G,1.06
2,C8A G135U,-0.432
3,C8G C56U C97U,0.547
4,C8G G61C C89U C104U,-2.02
5,C8G C76U G135A,-0.923
6,C8G A29C G48A C70U,-2.95
7,C8G G36U G47A C72G U92G C115A,-6.07
8,C8G C13U C79A G117A U126A,-0.523
9,C8G C40A C98U G127C,-2.67
10,C8A U14G G61U C123A U131A G135U,1.21
11,C8G C11G A24G C40U C56U C94U,-2.88
12,C8A G52C U81A,-2.06
13,C8G G69A,-1.5
14,C8A G77U U106G C115G,-1.95
15,C8G C49G,0.323
16,C8G G36C C56A C70U U96C A119U,-5
17,C8G A41G A83G G110U A121G,-3.81
18,C8G G47A C64U C97A G120U,-4.09
19,C8G C86G C89U G93A,-0.898
20,C8A G52U G60C A91U U112A A118C U131C,-1.41
21,C8G A50G,0.932
22,C8G G19C A75U C89G,-2.29
23,C8G C13U G47C A74G,-0.735
